Measurements taken from article PMC8565929 (eLife, 2021).

B1: Recombinant his-tagged FL-Hst4 (pET28a) (natural protein, S. pombe, UniProt Q9UR39 1-415, looked up)
chain: MKVEEHVPLIQESRKRKCQSSENASKRQQLLSKLPLRLHTGNENVDLSPLVSAIRKAKRIVVVTGAGISCDAGIPDFRSSEGLFSSLRAEYKLNCSGKELFDGSVYRDLKSVNIFHAMIRKLHMLSNNARPTDFHLFLSQLAQESKLLRLYTQNIDFLETRLEGLQTCIPLPQSAPWPTTIPLHGTLEVVSCTRCSFLKKFNPDIFDRNGVTVCPDCKTENEVRRIAGKRSVIEGCLRPRIVLYNEIHPDSESIGSVCSQDLKSRPDCLIVAGTSCKIPGVKRIIKEMSNCVHKQKGNVIWLNYDEPTKDFLNLCDLVVQGDLQIAIRRLKPLLDAPSWKLKSHSAKRTSKQKSSEQTKITSSTKITKAIGLNTKSNDSSKKDNTSFQLHQVLNSIEIPKVEIKQEVEYATPSPL
B2: Swi3-3FLAG (natural protein, S. pombe, UniProt O14350 1-181, looked up)
chain: MSTAASDSGVEKLVEENKREEVKKNEEEKEFDLGLEENPDSVKKPRKRLAKFDEERLISENGIPKLRKMMRKVKLKGKGHEAKDLKQLLGMYHIWTHELYPRATFDDSISYLKTLGKHRSVKVRRRGWINEIAVENGSDSNASLFTGPSSNSLVNLTSGDPYVQDTADDAFVAQDNDTQLE

Assays:
Assay in all cases: pull-down
[1] = target: DDK (Hsk1-HA with Dfp1-myc) (S. pombe, UniProt P50582 1-507; O59836 1-545)
Chain of DDK (Hsk1-HA with Dfp1-myc) (P50582 whole entry, chain 1 of 2): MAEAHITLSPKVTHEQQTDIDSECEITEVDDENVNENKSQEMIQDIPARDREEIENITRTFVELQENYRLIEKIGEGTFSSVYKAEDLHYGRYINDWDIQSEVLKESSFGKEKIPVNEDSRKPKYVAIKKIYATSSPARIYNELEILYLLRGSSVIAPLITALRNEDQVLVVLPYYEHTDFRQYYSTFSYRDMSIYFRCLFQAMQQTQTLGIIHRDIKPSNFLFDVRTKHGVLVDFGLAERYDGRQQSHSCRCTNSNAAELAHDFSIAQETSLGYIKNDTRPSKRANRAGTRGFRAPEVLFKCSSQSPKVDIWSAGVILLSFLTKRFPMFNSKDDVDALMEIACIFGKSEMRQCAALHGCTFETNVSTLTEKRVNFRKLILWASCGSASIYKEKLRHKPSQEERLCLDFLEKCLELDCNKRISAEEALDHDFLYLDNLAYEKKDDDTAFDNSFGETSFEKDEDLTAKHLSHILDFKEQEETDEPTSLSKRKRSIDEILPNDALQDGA
Chain of DDK (Hsk1-HA with Dfp1-myc) (O59836 whole entry, chain 2 of 2): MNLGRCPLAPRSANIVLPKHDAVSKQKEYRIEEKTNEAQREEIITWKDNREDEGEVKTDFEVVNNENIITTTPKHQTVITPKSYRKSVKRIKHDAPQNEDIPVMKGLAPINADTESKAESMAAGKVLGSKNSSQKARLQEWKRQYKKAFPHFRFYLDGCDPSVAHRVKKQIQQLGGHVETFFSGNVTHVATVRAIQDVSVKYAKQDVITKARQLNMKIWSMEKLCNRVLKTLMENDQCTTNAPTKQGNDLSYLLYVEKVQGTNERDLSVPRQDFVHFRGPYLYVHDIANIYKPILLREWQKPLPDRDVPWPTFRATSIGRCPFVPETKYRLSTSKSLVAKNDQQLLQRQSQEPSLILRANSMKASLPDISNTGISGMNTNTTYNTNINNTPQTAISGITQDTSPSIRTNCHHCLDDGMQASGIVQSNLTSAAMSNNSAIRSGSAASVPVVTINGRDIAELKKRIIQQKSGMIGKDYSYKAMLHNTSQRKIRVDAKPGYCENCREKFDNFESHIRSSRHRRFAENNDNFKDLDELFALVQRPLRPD

Swi1-3FLAG = Swi1-3FLAG (S. pombe, UniProt Q9UUM2 1-971)
Chain of Swi1-3FLAG (Q9UUM2 whole entry): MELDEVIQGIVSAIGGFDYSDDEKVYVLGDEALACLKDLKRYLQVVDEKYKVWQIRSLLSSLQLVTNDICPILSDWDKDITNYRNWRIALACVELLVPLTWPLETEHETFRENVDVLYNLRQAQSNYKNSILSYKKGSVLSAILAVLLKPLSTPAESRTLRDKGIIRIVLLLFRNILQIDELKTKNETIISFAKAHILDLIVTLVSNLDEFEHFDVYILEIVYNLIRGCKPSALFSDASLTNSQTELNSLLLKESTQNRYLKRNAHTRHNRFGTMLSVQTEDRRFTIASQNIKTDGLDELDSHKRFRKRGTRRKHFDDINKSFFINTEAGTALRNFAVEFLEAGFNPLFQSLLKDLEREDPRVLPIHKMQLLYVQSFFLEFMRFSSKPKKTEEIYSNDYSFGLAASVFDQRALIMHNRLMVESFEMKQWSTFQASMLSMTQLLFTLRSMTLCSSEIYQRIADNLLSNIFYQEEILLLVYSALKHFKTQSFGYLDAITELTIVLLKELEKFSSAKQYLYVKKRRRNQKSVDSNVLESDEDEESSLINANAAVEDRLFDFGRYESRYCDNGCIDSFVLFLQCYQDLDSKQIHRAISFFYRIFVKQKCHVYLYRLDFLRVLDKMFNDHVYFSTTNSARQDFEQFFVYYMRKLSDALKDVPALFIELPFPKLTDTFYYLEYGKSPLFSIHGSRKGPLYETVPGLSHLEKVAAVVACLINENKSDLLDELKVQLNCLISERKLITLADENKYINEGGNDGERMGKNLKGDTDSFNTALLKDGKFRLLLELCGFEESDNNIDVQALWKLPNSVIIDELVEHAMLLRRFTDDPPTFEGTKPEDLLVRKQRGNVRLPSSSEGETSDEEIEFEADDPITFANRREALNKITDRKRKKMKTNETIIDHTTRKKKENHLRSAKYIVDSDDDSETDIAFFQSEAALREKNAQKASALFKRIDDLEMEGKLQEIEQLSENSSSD

[2] = target: B1

binding result [1] | binding result (Swi1-3FLAG) | binding result [2] | Binder
binds | binds | – | B1
– | – | binds | B2
